Data taken from PMC3150801 (Nature, 2011).

Target: GST hLRH-1 ligand binding domain (amino acid residues, 185-541) (human, UniProt O00482 185-541)
Assay: pull-down

GST hLRH-1 ligand binding domain (amino acid residues, 185-541), sequence (O00482 185-541): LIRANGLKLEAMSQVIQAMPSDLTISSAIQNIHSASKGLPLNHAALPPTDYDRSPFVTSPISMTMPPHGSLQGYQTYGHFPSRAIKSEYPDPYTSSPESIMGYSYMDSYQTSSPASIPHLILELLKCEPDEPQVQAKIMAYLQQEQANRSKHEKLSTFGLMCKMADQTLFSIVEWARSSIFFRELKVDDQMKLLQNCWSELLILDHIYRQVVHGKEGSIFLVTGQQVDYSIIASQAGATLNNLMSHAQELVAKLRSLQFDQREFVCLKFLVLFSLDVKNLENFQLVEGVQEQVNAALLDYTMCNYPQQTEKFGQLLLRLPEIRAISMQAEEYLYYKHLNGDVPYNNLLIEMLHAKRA

B1: Full-length [35S]methionine-labeled SRC-3 (natural protein)
chain: not shown
modifications: [35S]methionine label
  fold increase of binding with DLPC or DUPC over basal: ~3 fold
